# Results: patent US20100003258A1 (AVEO PHARMACEUTICALS, published 2010)
# T1: recombinant human FGFR3 IIIc Fc fusion protein (human, UniProt P22607 23-375)
# T1 construct: Bought reagent; also called rhFGFR3 IIIc Fc; not shown: Fc fragment (removable by Factor Xa)
# T1 sequence (looked up): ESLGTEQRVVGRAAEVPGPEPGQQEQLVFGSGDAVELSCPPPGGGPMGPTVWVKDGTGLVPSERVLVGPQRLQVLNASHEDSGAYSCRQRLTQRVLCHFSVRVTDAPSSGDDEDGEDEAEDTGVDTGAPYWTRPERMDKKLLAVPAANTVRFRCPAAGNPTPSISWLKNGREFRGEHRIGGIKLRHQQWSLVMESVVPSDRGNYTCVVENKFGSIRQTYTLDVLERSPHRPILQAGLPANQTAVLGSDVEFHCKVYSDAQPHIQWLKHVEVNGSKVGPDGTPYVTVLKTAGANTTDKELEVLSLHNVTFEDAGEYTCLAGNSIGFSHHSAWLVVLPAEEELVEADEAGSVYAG
# Biological target: T1, recombinant human FGFR3 IIIc Fc fusion …
# Test: kinetic exclusion assay (KinExA), antibody and rhFGFR3 IIIc Fc in solution, room temperature
# Description: The binding affinities of monoclonal 15D8, chimeric 15D8, and humanized 15D8 antibodies for recombinant human FGFR3 IIIc Fc fusion protein was measured using a kinetic exclusion assay, KinExA® technology (Sapidyne Instruments, Inc.). First, beads were prepared for the purpose of detecting anti-FGFR3 antibody that is unbound to FGFR3 IIIc Fc. This was done by adding 1 ml recombinant human FGFR3IIIc Fc (R&D Systems, Inc.) 10 ug/ml in PBS to 200 mg polymethyl methacrylate (PMMA) hard beads. The suspension was mixed and rotated for two hours at room temperature. Next, the mixture was centrifuged and supernatant was discarded. The bead pellet was rinsed once with 1 ml BSA 10 mg/ml in PBS by incubation for 1 hour at room temperature with rotation. The beads were resuspended in 27 ml PBS with 0.02% NaN₃. Next, a fixed concentration of anti-FGFR3 antibody (0.5 nM) was incubated in solution with a series of FGFR3 IIIc Fc concentrations (started with 50 nM (in PBS BSA (1 mg/ml)) and serially diluted 1:2 in PBS BSA(1 mg/ml) to obtain 50 to 0.0122 nM FGFR3 III Fc) at room temperature for at least 4 hours to allow equilibrium to be reached. By measuring the amount of anti-FGFR3 antibody that is not bound to FGFR3 IIIc Fc, the KD was determined. Unbound anti-FGFR3 antibody was detected by allowing the anti-FGFR3 antibody/FGFR3 IIIc Fc solution to flow through the FGFR3 IIIc Fc PMMA beads. The anti-FGFR3 antibody captured by these beads was then detected with Cy5-conjugated anti-human secondary antibody 0.3 ug/ml (Jackson ImmunoResearch) or Cy5-conjugated anti-mouse secondary antibody (Jackson ImmunoResearch) 0.5 ug/ml in PBS BSA 1 mg/ml. The detected signal for captured anti-FGFR3 antibody is directly proportional to the remaining free binding sites, thus allowing KD determination. The experiments were repeated, varying the concentrations of anti-FGFR3 antibody or FGFR3 III Fc used in solution, and the KD was calculated with the KinExA® software using n-curve analysis.
row,Kd [nM],Binder
1,0.0503,"Chimeric 15D8 (antibody, human IgG1, kappa, Mouse variable regions with human IgG1 and human kappa constant regions; made in 293T cells; also called chimeric 15D8 antibody) heavy: not shown light: QIVLTQSPALMSASPGEKVTMTCSASSSVSYMYWYQQKPRSSPKPWIYLTSYLASGVPARFSGSGSGTSYSLTISSMEAEDAATYYCQQWSSYPLTFGAGTKLELKRTVAAPSVFIFPPSDEQLKSGTASVVCLLNNFYPREAKVQWKVDNALQSGNSQESVTEQDSKDSTYSLSSTLTLSKADYEKHKVYACEVTHQGLSSPVTKSFNRGEC"
2,0.0772,"Humanized 15D8 (antibody, human IgG1, kappa, V domains shown, Humanized variable regions with human IgG1 and human kappa constant regions; made in 293T cells; also called Hu15D8; humanized 15D8 antibody) VH: EVQLVQSGAEVKKPGESLKISCKGSGYSFTSYNMYWVRQMPGKGLEWMGYIDPYNGGTSYNQKFKGKATLTVDKSISTAYLQWSSLKASDTAMYYCAREGGNYEAWFAYWGQGTLVTVSS VL: DIQLTQSPSSLSASVGDRVTITCSASSSVSYMYWFQQKPGKAPKPLIYLTSYLASGVPSRFSGSGSGTDFTLTISSLQPEDFATYYCQQWSSYPLTFGGGTKVEIKR"
